# Reference: US20220380463A1 (Adimab, published 2022)
# Positions count from the first letter of the chain named.
# T1: Cynomolgus CD3εδ Fc heterodimer (Cy CD3ε Fc / CD3δ Fc-HIS) (cynomolgus, UniProt Q95LI8 22-100)
# T1 chain 1: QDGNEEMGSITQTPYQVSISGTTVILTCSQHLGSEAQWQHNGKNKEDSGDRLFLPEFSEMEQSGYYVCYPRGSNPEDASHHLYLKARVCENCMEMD
# T1 chain 2: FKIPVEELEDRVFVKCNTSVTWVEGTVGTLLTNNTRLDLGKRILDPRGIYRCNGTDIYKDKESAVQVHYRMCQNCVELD
# B1: SAD10319_P04_G11 (ADI-48641) (antibody, V domains shown)
# VH: QVQLVQSGAEVKKPGASVKVYCKASGYTFTTYEMHWVRQAPGQRLEWMGSINAGDANTKYSQKFQGRVTITRDTSASTAYMELSSLRSEDTAVYYCARDAYHHYFYDVWGQGTLVTVSS
# VL: DIVMTQSPDSLAVSLGERATINCKSSQSLLNARTGKNYLAWYQQKPGQPPKLLIYWASTRESGVPDRFSGSGSGTDFTLTISSLQAEDVAVYYCKQSYSRRTFGGGTKVEIK
# notes: IgG; also called Ab39
# B2: SAD10320_P01_D03 (ADI-57356) (antibody, V domains shown)
# VH: QVQLVQSGAEVKKPGASVKVSCKASGFDIKDYYMHWVRQAPGQRLEWMGWIDLENANTIYDAKFQGRVTITRDTSASTAYMELSSLRSEDTAVYYCARDAYGHAFYDVWGQGTLVTVSS
# VL: B1 VL with S99H, R100G
# notes: IgG; also called Ab63
# B3: SAD10319_P04_C12 (ADI-57341) (antibody, V domains shown)
# VH: QVQLVQSGAEVKKPGASVKVSCKASGYTFTAYDMHWVRQAPGQRLERMGWIDPITGNTKYSQKFQGRVTITRDTSASTAYMELSSLRSEDTAVYYCAHDAYGHYFYDVWGQGTLVTVSS
# VL: B1 VL
# notes: IgG; also called Ab41
# B4: SAD10320_P02_D06 (ADI-57368) (antibody, V domains shown)
# VH: B2 VH with D28N, L45P, E46A, A104G
# VL: B1 VL with S99G, R100H
# notes: IgG; also called Ab85
# B5: SAD10320_P04_D10 (ADI-57384) (antibody, V domains shown)
# VH: B2 VH with K23E, D28N, L45P, A104V
# VL: B1 VL with S99L, R100H
# notes: IgG; also called Ab105
# B6: SAD10320_P03_E07 (ADI-57374) (antibody, V domains shown)
# VH: B2 VH with D28N, Y101V, G102H, H103R, A104Y
# VL: B1 VL with S99H, R100P
# notes: IgG; also called Ab92
# B7: SAD10320_P03_C09 (ADI-57381) (antibody, V domains shown)
# VH: B2 VH with K23E, D28N, A104V
# VL: B1 VL with S99L, R100H
# notes: IgG; also called Ab99
# B8: SAD10320_P01_E03 (ADI-57357) (antibody, V domains shown)
# VH: B2 VH with D28N, W47R, A104G
# VL: B1 VL with S99R, R100H
# notes: IgG; also called Ab64
# B9: SAD10320_P02_A04 (ADI-57360) (antibody, V domains shown)
# VH: B2 VH with D28N
# VL: B1 VL with Y98L, S99H
# notes: IgG; also called Ab68
# B10: SAD10320_P01_C02 (ADI-57348) (antibody, V domains shown)
# VH: B2 VH with D28N, E46D, Y101G, G102H, H103R, A104Y
# VL: B1 VL with T34P, K95G, Q96H
# notes: IgG; also called Ab54
# B11: SAD10320_P02_B04 (ADI-57273) (antibody, V domains shown)
# VH: B2 VH with D28N, W47R, A104G
# VL: B1 VL with S99G, R100H
# notes: IgG; ADI-57273 is also printed for Ab114; also called Ab70
# B12: SAD10320_P03_F08 (ADI-57378) (antibody, V domains shown)
# VH: B2 VH with D28N, A104D
# VL: B1 VL with T34P
# notes: IgG; also called Ab96
# B13: SAD10320_P01_F02 (ADI-57350) (antibody, V domains shown)
# VH: B2 VH with D28N, W47R, A104T
# VL: B1 VL with S99W, R100H
# notes: IgG; also called Ab56
# B14: SAD10320_P03_D08 (ADI-57377) (antibody, V domains shown)
# VH: B2 VH with D28N, A104Q
# VL: B1 VL with S99H, R100T
# notes: IgG; also called Ab95
# B15: SAD10320_P03_B07 (ADI-57373) (antibody, V domains shown)
# VH: B2 VH with D28N, E46A, A104D
# VL: B1 VL
# notes: IgG; also called Ab90
# B16: SAD10320_P02_H04 (ADI-57362) (antibody, V domains shown)
# VH: B2 VH with D28N, E46D, A104L
# VL: B1 VL with Y98H, S99M
# notes: IgG; also called Ab73
# B17: SAD10320_P02_A06 (ADI-57367) (antibody, V domains shown)
# VH: B2 VH with D28N, E46P, Y101H, G102E, H103R, A104Y
# VL: B1 VL with Y98H, S99L
# notes: IgG; also called Ab82
# B18: SAD10320_P04_F10 (ADI-57385) (antibody, V domains shown)
# VH: B2 VH with D28N, R44T, E46D, H103R, A104N, F105H
# VL: B1 VL with T34P, S99L, R100H
# notes: IgG; also called Ab107
# B19: SAD10320_P03_C08 (ADI-57376) (antibody, V domains shown)
# VH: B2 VH with K23E, D28N, R44T, E46A, A104V
# VL: B1 VL with S99L, R100H
# notes: IgG; also called Ab94
# B20: SAD10320_P01_H01 (ADI-57347) (antibody, V domains shown)
# VH: B2 VH with D28N, E46D, A104N
# VL: B1 VL with S99H, R100K
# notes: IgG; also called Ab52
# B21: SAD10320_P01_F01 (ADI-57345) (antibody, V domains shown)
# VH: B2 VH with D28N, L45P, E46A, Y101S, G102H, H103R, A104Y
# VL: B1 VL with K95G, Q96H
# notes: IgG; also called Ab50
# B22: SAD10320_P03_F09 (ADI-48656) (antibody, V domains shown)
# VH: B2 VH with D28N, A104D
# VL: B1 VL with S99H
# notes: IgG; also called Ab101
# B23: SAD10320_P03_H08 (ADI-57379) (antibody, V domains shown)
# VH: B2 VH with D28N, A104V
# VL: B1 VL with R33S, G35A, S99R, R100H
# notes: IgG; also called Ab97
# B24: SAD10320_P01_G03 (ADI-57358) (antibody, V domains shown)
# VH: B2 VH with D28N, L45P, A104S
# VL: B1 VL with S99H, R100W
# notes: IgG; also called Ab66
# B25: SAD10319_P04_F12 (ADI-57343) (antibody, V domains shown)
# VH: QVQLVQSGAEVKKPGASVKVSCKASGYTFNDYAMHWVRQAPGQRLDWMGWINPDTGNTNYSQKFQGRVTITRDTSASTAYMELSSLRSEDTAVYYCARDHYGRYFYDHWGQGTLVTVSS
# VL: B1 VL
# notes: IgG; also called Ab44
# B26: SAD10320_P04_E10 (ADI-48657) (antibody, V domains shown)
# VH: B2 VH with D28N, L45P, A104D
# VL: B1 VL
# notes: IgG; also called Ab106
# B27: SAD10320_P04_A10 (ADI-57382) (antibody, V domains shown)
# VH: B2 VH with D28N, E46D, A104D
# VL: B1 VL
# notes: IgG; also called Ab103
# B28: SAD10320_P02_A05 (ADI-57363) (antibody, V domains shown)
# VH: B2 VH with D28N, A104M
# VL: B1 VL with T34P, S99H, R100M
# B29: SAD10320_P01_G02 (ADI-57351) (antibody, V domains shown)
# VH: B2 VH with D28N, E46Q, A104S
# VL: B1 VL with S99H, R100E
# notes: IgG; also called Ab57
# B30: SAD10320_P01_G01 (ADI-57346) (antibody, V domains shown)
# VH: B2 VH with D28N, A104S
# VL: B1 VL with S99H, R100L
# notes: IgG; also called Ab51
# B31: SAD10320_P04_C10 (ADI-57383) (antibody, V domains shown)
# VH: B2 VH with D28N
# VL: B1 VL with S99H, R100Q
# notes: IgG; also called Ab104
# B32: SAD10320_P02_B05 (ADI-57364) (antibody, V domains shown)
# VH: B2 VH with D28N, A104N
# VL: B1 VL with S99T, R100H
# notes: IgG; also called Ab75
# B33: SAD10320_P04_G10 (ADI-48658) (antibody, V domains shown)
# VH: B2 VH with D28N, A104D
# VL: B1 VL
# notes: IgG; also called Ab108
# B34: SAD10320_P01_H02 (ADI-57352) (antibody, V domains shown)
# VH: B2 VH with D28N, A104S
# VL: B1 VL with Y98M, S99H
# B35: SAD10320_P01_H03 (ADI-57359) (antibody, V domains shown)
# VH: B2 VH with D28N, L45P, Y101A, G102H, H103R, A104Y
# VL: B1 VL with T34P, G35R, Y98H, S99D
# notes: IgG; also called Ab67
# B36: SAD10319_P04_H12 (ADI-57344) (antibody, V domains shown)
# VH: B1 VH with Y21S, T31S, Y32D, E33H, D55T, A56G, N57A, H102G, V108H
# VL: B1 VL
# notes: IgG; also called Ab45
# B37: SAD10319_P04_D12 (ADI-57342) (antibody, V domains shown)
# VH: B25 VH with N30T, D31S, W50Y, N57D, N59K, H100A, G102H, R103H, H108V
# VL: B1 VL
# notes: IgG; also called Ab42
# B38: SAD10320_P02_C05 (ADI-57365) (antibody, V domains shown)
# VH: B2 VH with F27S, D28N, A104S
# VL: B1 VL with S99H, R100G
# notes: IgG; also called Ab76
# B39: SAD10320_P03_A09 (ADI-57380) (antibody, V domains shown)
# VH: B2 VH with D28N, A104V
# VL: B1 VL with Y98S, S99H
# notes: IgG; also called Ab98
# B40: SAD10319_P04_E12 (ADI-48642) (antibody, V domains shown)
# VH: QVQLVQSGAEVKKPGASVKVSCKASGYTFTSYPMHWVRQAPGQRLEWMGWIDAGTGLTTYSQKFQGRVTITRDTSASTAYMELSSLRSEDTAVYYCARDHYHRYFYDMWGQGTLVTVSS
# VL: B1 VL
# notes: IgG; also called Ab43
# B41: SAD10320_P02_E05 (ADI-57366) (antibody, V domains shown)
# VH: B2 VH with D28N, A100M, Y101H, H103R, A104Y
# VL: B1 VL with Y98E, S99H
# notes: IgG; also called Ab78
# B42: SAD10320_P02_E06 (ADI-57369) (antibody, V domains shown)
# VH: B2 VH with G8E, D28N, E46Q, A104G
# VL: B1 VL with T34P
# notes: IgG; also called Ab86
# B43: SAD10320_P02_H06 (ADI-57372) (antibody, V domains shown)
# VH: B2 VH with D28N, H103R, A104N, F105H
# VL: B1 VL with N37S, S99V, R100H
# notes: IgG; also called Ab89
# B44: SAD10320_P01_C03 (ADI-57355) (antibody, V domains shown)
# VH: B2 VH with D28N, A104S
# VL: B1 VL with S99H, R100W
# notes: IgG; also called Ab62
# Molecular target: T1, Cynomolgus CD3εδ Fc heterodimer (Cy …)
# Test: BLI (Octet), IgG on AHC sensor, pH 6.0
row,koff [s⁻¹],Binder
1,0.00317,B1
2,0.00263,B2
3,0.0196,B3
4,0.00621,B4
5,0.0171,B5
6,0.00699,B6
7,0.0051,B7
8,0.0223,B8
9,0.0182,B9
10,0.00277,B10
11,0.0176,B11
12,0.00268,B12
13,0.0194,B13
14,0.00194,B14
15,0.00224,B15
16,0.0278,B16
17,0.00264,B17
18,0.00239,B18
19,0.0152,B19
20,0.0207,B20
21,0.00642,B21
22,0.00719,B22

row,koff [s⁻¹],Binder
1,0.015,B23
2,0.0215,B24
3,0.0162,B25
4,0.00258,B26
5,0.0144,B27
6,0.0168,B28
7,0.0197,B29
8,0.0144,B30
9,0.0187,B31
10,0.00269,B32
11,0.0189,B33
12,0.00334,B34
13,0.00291,B35
14,0.0047,B36
15,0.012,B37
16,0.0207,B38
17,0.0029,B39
18,0.00307,B40
19,0.00318,B41
20,0.0303,B42
21,0.00281,B43
22,0.0195,B44
